# In PMC10878280 (Journal of Virology, 2024):
# B1: FI6v3 IgG (antibody, V domains shown)
# VH: QVQLVESGGGVVQPGRSLRLSCAASGFTFSTYAMHWVRQAPGKGLEWVAVISYDANYKYYADSVKGRFTISRDNSKNTLYLQMNSLRAEDTAVYYCAKDSQLRSLLYFEWLSQGYFDYWGQGTLVTVSS
# VL: not shown
# notes: not shown: ybbR, C-terminal, kept; copies: 2 + 2
# B2: S139\1 IgG (antibody, V domains shown)
# VH: QVQLQQSGTELKKPGASVKISCKATGYTFSSYWIEWIKQRPGHGLEWIGEILPEIGMTNYNENFKGKATFTANTSSNTVYMQLSSLTSEDSAVYYCARPYDYSWFAYWGQGTLVTVSA
# VL: DIVMTQSQKFMSTSVGDRVSVTCKASQNVDTNVAWYQEKPGQSPKTLIYSASNRYSGVPDRFTGSASGTDFTLTITNVQSEDLAEYFCQQYNSYPYTFGGGTKLEIK
# notes: as for B1
# B3: C05 IgG (antibody, V domains shown)
# VH: QVQLQESGGGLVQPGESLRLSCVGSGSSFGESTLSYYAVSWVRQAPGKGLEWLSIINAGGGDIDYADSVEGRFTISRDNSKETLYLQMTNLRVEDTGVYYCAKHMSMQQVVSAGWERADLVGDAFDVWGQGTMVTVSS
# VL: DIQLTQSPSSLSASVGDRVTLTCQASQDIRKFLNWYQQKPGKGPKLLIYDASNLQRGVPSRFSGGGSGTDFTLIISSLQPEDVGTYYCQQYDGLPFTFGGGTKVVIK
# notes: as for B1
# Target: T1, hemagglutinin (HA) of A/WSN/1933, on transfected HEK-293T cells (Influenza A virus A/WSN/1933 (H1N1), UniProt P03454)
# T1 construct: source: HEK-293T, transfected with HA-expressing plasmid, on cells
# Test: fluorescence imaging with FRAP of labelled antibody on transfected cells
# Conditions: one partner purified
row,Binder,binding result
1,B1,binds
2,B2,binds
3,B3,binds
